T1: TOCA1 HR1-SH3 (residues 330–545) (Xenopus tropicalis, UniProt Q6GUF4 330-545)
T1 construct: Xenopus tropicalis TOCA1, C-terminally extended HR1 construct, residues 330-545, in pMAT10-P; also called HR1-SH3 protein; TOCA1 330–545; source: E. coli, purified (Ni-NTA, 3C protease cleavage, gel filtration); not shown: His, N-terminal, cleaved; MBP, N-terminal, cleaved
T1 sequence (looked up): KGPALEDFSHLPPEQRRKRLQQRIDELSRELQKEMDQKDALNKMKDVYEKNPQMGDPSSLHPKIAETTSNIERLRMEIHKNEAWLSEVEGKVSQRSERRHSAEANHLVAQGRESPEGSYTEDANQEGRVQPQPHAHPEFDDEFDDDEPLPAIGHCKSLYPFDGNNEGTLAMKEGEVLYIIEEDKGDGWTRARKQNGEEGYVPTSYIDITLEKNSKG

B1: Cdc42Δ7Q61L (domain or fragment)
chain: not shown
notes: Human Cdc42 with seven residues deleted from the C terminus and the mutation Q61L; cloned into pGEX-2T; Loaded with [3H]GTP for SPA and with GMPPNP for NMR; 15N- or 15N/13C-labelled in some NMR experiments; also called truncated Cdc42; Cdc42Δ7Q61L·[3H]GTP; source: E. coli BL21, purified (glutathione-agarose, thrombin cleavage, gel filtration)

What was measured:
Conditions in all cases: both partners purified
[1] = target: T1, TOCA1 HR1-SH3 (residues 330–545); experiment: scintillation proximity assay; competition; free effector domain titrated into 30 nM Cdc42·[3H]GTP and 30 nM GST-ACK (in Fig. 7B GST-ACK or GST-WASP GBD) immobilised on a fluoromicrosphere; Kd from competition binding isotherms
full-length Cdc42Q61L = target: T2, full-length Cdc42Q61L (human, UniProt P60953 1-191, Q61L); experiment: as above
T2 construct: Human Cdc42, full length, Q61L; cloned into pGEX-6P-1; confirmed as full-length by mass spectrometry; Loaded with [3H]GTP for SPA; also called Cdc42FLQ61L; full-length [3H]GTP·Cdc42; source: E. coli BL21, purified (glutathione-agarose, 3C protease cleavage, gel filtration)
T2 sequence (P60953 whole entry Q61L): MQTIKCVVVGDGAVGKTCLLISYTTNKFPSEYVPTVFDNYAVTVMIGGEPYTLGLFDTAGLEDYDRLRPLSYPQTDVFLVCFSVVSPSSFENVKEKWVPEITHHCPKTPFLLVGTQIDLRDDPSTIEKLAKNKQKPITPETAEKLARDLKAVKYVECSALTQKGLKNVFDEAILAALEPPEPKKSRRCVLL

Cdc42Δ7Q61L [2] = target: B1; experiment: scintillation proximity assay; direct binding; 30 nM GST-PAK, GST-ACK or His-tagged TOCA1 construct attached to a fluoromicrosphere via an anti-GST or anti-His antibody; Cdc42·[3H]GTP at increasing concentrations; apparent Kd from a direct binding isotherm
Cdc42Δ7Q61L, sequence (P60953 1-184 Q61L): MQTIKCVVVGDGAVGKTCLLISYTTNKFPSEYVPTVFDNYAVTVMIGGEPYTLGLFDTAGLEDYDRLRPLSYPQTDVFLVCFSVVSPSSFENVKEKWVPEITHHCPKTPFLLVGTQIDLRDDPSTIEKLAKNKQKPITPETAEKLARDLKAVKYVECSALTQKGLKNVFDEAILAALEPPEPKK

Cdc42Δ7Q61L [3] = target: B1; experiment: scintillation proximity assay; competition; free effector domain titrated into 30 nM Cdc42·[3H]GTP and 30 nM GST-ACK (in Fig. 7B GST-ACK or GST-WASP GBD) immobilised on a fluoromicrosphere; Kd from competition binding isotherms

Kd (full-length Cdc42Q61L) [µM] | Kd (Cdc42Δ7Q61L [3]) [µM] | Binder | also measured
 |  | B1 | Kd [1]: 4.6 µM
10 |  | FBP17 HR1 domain (residues 385–486) (domain or fragment, Xenopus laevis, UniProt Q6GNV5 385-486, looked up, Xenopus laevis FBP17 HR1 domain, residues 385-486, from IMAGE clone 5514481, in pGEX-6P-1; also called HR1^FBP17; source: E. coli BL21, purified (glutathione-agarose, 3C protease cleavage, gel filtration); not shown: GST, N-terminal, cleaved) LKRGGSTPEDFSNLPPEQRRKKLQQKVDELNKDIQKEIDQRDALTKMRDVYTKNPQMGDAASVGQKLVEIGNNIEKLRVEVQKFEGWLAEVEGRLSARNDSS | 
 |  | TOCA1 HR1 domain (residues 330–426) with C-terminal His6 tag (domain or fragment, Xenopus tropicalis, UniProt Q6GUF4 330-426, looked up, Xenopus tropicalis TOCA1 HR1 domain, residues 330-426, from cDNA NM_001005148, in pGEX-HisP; also called HR1-His6; C-terminally His-tagged TOCA1 HR1 domain construct; source: E. coli BL21, purified (glutathione-agarose, 3C protease cleavage, gel filtration); not shown: GST, N-terminal, cleaved; His6, C-terminal, kept) KGPALEDFSHLPPEQRRKRLQQRIDELSRELQKEMDQKDALNKMKDVYEKNPQMGDPSSLHPKIAETTSNIERLRMEIHKNEAWLSEVEGKVSQRSE | Kd (Cdc42Δ7Q61L [2]): > 1 µM
5.39 | 6.05 | TOCA1 HR1 domain (residues 330–426), untagged (domain or fragment, Xenopus tropicalis, UniProt Q6GUF4 330-426, looked up, Xenopus tropicalis TOCA1 (transducer of Cdc42-dependent actin assembly protein 1) HR1 domain, residues 330-426, from cDNA NM_001005148, in pGEX-6P-1; 15N- or 13C/15N-labelled in some NMR experiments; also called HR1^TOCA1; TOCA HR1 domain; source: E. coli BL21, purified (glutathione-agarose, 3C protease cleavage, gel filtration); not shown: GST, N-terminal, cleaved) KGPALEDFSHLPPEQRRKRLQQRIDELSRELQKEMDQKDALNKMKDVYEKNPQMGDPSSLHPKIAETTSNIERLRMEIHKNEAWLSEVEGKVSQRSE | 
5 |  | CIP4 HR1 domain (residues 388–481) (domain or fragment, human, UniProt Q15642 388-481, looked up, also called HR1^CIP4; source: E. coli BL21, purified (glutathione-agarose, 3C protease cleavage, gel filtration); not shown: GST, N-terminal, cleaved) TEDFSHLPPEQQRKRLQQQLEERSRELQKEVDQREALKKMKDVYEKTPQMGDPASLEPQIAETLSNIERLKLEVQKYEAWLAEAESRVLSNRGD | 
 | 0.037 | N-WASP G protein-binding domain (GBD) (residues 197–255) (domain or fragment, Xenopus tropicalis, UniProt Q6NX29 197-255, looked up, also called N-WASP GBD; N-WASP CRIB domain; source: E. coli BL21-CodonPlus-RIL, purified (glutathione-agarose, 3C protease cleavage, gel filtration); not shown: GST, N-terminal, cleaved) KKKLTKADIGTPSNFQHIGHVGWDPNTGFDVNNLDPELKKLFDLCGISEAQLKDKETSK | 

From PMC4919469, “Investigation of the Interaction between Cdc42 and Its Effector TOCA1” (The Journal of Biological Chemistry, 2016)
